Assay results as given in paper PMC1810427, “MLN51 Stimulates the RNA-Helicase Activity of eIF4AIII”.

Key:
[1] = target: eIF4AIII;MLN51 SELOR (human;human?, UniProt P38919;O15234 1-411;137-283, |); assay: SPR; AMPPNP; 5 mM Mg2+; SPR (Biacore 2000): 40 mM Tris-HCl pH 7.8, 50 mM NaCl, 4 mM DTT, 5 mM MgCl2, 0.002% Tween 20, 30 ul/min, 10-160 nM protein; temperature not stated; conditions: protein: recombinant;recombinant; tags: N-terminal His6;GST cleaved off (PreScission); copies: 1;1; label: 5' biotin; single strand
[2] = target: MLN51 SELOR (UniProt O15234 137-283); assay: SPR; no nucleotide; 5 mM Mg2+; SPR (Biacore 2000): 40 mM Tris-HCl pH 7.8, 50 mM NaCl, 4 mM DTT, 5 mM MgCl2, 0.002% Tween 20, 30 ul/min, 10-160 nM protein; temperature not stated; conditions: protein: recombinant; tags: GST cleaved off (PreScission); label: 5' biotin; single strand
[3] = target: Y14;Magoh (human;human, UniProt Q9Y5S9;P61326 50-174;1-146, |); assay: SPR; no nucleotide stated; 5 mM Mg2+; SPR (Biacore 2000): 40 mM Tris-HCl pH 7.8, 50 mM NaCl, 4 mM DTT, 5 mM MgCl2, 0.002% Tween 20, 30 ul/min, 10-160 nM protein; temperature not stated; conditions: protein: recombinant;recombinant; tags: none;N-terminal His6; copies: 1;1; label: 5' biotin; single strand
[4] = target: eIF4AIII;MLN51 SELOR;Y14;Magoh (human;human;human, UniProt P38919;O15234;Q9Y5S9;P61326 1-411;137-283;50-174;1-146, |||); assay: SPR; ATP; 5 mM Mg2+; SPR (Biacore 2000): 40 mM Tris-HCl pH 7.8, 50 mM NaCl, 4 mM DTT, 5 mM MgCl2, 0.002% Tween 20, 30 ul/min, 10-160 nM protein; temperature not stated; conditions: protein: recombinant;recombinant;recombinant;recombinant; tags: N-terminal His6;GST cleaved off (PreScission);none;N-terminal His6; copies: 1;1;1;1; label: 5' biotin; single strand
Chain of eIF4AIII;MLN51 SELOR;Y14;Magoh (P38919 whole entry, chain 1 of 4, other chains not shown): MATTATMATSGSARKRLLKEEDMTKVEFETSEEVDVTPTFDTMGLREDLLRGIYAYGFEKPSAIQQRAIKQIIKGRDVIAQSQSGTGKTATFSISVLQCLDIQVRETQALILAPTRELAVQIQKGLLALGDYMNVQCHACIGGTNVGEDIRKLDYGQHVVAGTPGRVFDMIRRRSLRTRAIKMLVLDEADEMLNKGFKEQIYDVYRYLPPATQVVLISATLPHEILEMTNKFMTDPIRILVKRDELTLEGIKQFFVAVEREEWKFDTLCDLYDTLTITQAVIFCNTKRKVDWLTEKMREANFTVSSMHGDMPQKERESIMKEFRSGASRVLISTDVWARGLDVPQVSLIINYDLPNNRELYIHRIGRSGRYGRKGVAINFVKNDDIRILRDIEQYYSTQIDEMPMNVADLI
Chain of eIF4AIII;MLN51 SELOR;Y14;Magoh (O15234 137-283, chain 2 of 4, other chains not shown): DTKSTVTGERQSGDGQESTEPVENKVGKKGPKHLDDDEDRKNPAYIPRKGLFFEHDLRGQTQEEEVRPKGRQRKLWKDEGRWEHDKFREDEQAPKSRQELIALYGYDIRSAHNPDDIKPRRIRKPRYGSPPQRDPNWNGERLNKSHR
Chain of eIF4AIII;MLN51 SELOR;Y14;Magoh (P61326 whole entry, chain 4 of 4, other chains not shown): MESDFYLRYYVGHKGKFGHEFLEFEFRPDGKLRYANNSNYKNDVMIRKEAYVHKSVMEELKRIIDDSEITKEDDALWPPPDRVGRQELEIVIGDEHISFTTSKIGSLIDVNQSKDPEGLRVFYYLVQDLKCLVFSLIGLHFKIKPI

Chain of MLN51 SELOR (O15234 137-283): as the sequence (O15234 137-283, chain 2 of 4, other chains not shown) above
Chain of eIF4AIII;MLN51 SELOR (P38919 whole entry, chain 1 of 2): as the sequence (P38919 whole entry, chain 1 of 4, other chains not shown) above
Chain of eIF4AIII;MLN51 SELOR (O15234 137-283, chain 2 of 2): as the sequence (O15234 137-283, chain 2 of 4, other chains not shown) above
Chain of Y14;Magoh (P61326 whole entry, chain 2 of 2, other chains not shown): as the sequence (P61326 whole entry, chain 4 of 4, other chains not shown) above

B1: 35-mer ssRNA (ssRNA)
RNA: AUGUCAUUCGAGUACAGUCUGUUCAGCUAGUCUCC
Kd [1]: ~10 nM | Kd [2]: ~1000 nM | Kd [3]: ~2000 nM | Kd [4]: ~10 nM
